Laboratory results as given in patent US20020004485A1 (University of California, published 2002).

Columns and labels:
[1] = target: MC receptor endogenous to Xenopus laevis melanophores (Xenopus laevis); assay: cell-based or functional assay
[2] = target: atypical MC receptor of Cos-7 cells; assay: cell-based or functional assay

B1: α-melanocyte stimulating hormone (ligand, UniProt P01189 138-150, looked up)
peptide: SYSMEHFRWGKPV
[1]
  EC50 of α-MSH alone in frog melanophores: 0.03 nM
[2]
  EC50 of α-MSH for cAMP production in Cos-7 cells: ~80 nM
